Patent WO2011147762A2

Legend:
[1] = biological target: ED-B fibronectin antigen protein (recombinant), bound to CNBr activated sepharose 4B (UniProt P02751); test: ED-B sepharose column, % of total radioactivity bound; Study A; trolox 5 mg/mL; day 0
[2] = biological target: ED-B fibronectin antigen protein (recombinant), bound to CNBr activated sepharose 4B (UniProt P02751); test: ED-B sepharose column, % of total radioactivity bound; Study A; maltose 5 mg/mL; day 3
[3] = biological target: ED-B fibronectin antigen protein (recombinant), bound to CNBr activated sepharose 4B (UniProt P02751); test: ED-B sepharose column, % of total radioactivity bound; Study A; maltose 10 mg/mL; day 7
[4] = biological target: ED-B fibronectin antigen protein (recombinant), bound to CNBr activated sepharose 4B (UniProt P02751); test: ED-B sepharose column, % of total radioactivity bound; Study A; maltose 25 mg/mL; day 7
[5] = biological target: ED-B fibronectin antigen protein (recombinant), bound to CNBr activated sepharose 4B (UniProt P02751); test: ED-B sepharose column, % of total radioactivity bound; Study A; maltose 50 mg/mL; day 0
[6] = biological target: ED-B fibronectin antigen protein (recombinant), bound to CNBr activated sepharose 4B (UniProt P02751); test: ED-B sepharose column, % of total radioactivity bound; Study A; maltose 50 mg/mL; day 1
[7] = biological target: ED-B fibronectin antigen protein (recombinant), bound to CNBr activated sepharose 4B (UniProt P02751); test: ED-B sepharose column, % of total radioactivity bound; Study A; inositol 5 mg/mL; day 0
[8] = biological target: ED-B fibronectin antigen protein (recombinant), bound to CNBr activated sepharose 4B (UniProt P02751); test: ED-B sepharose column, % of total radioactivity bound; Study A; inositol 5 mg/mL; day 1
[9] = biological target: ED-B fibronectin antigen protein (recombinant), bound to CNBr activated sepharose 4B (UniProt P02751); test: ED-B sepharose column, % of total radioactivity bound; Study A; inositol 10 mg/mL; day 7
[10] = biological target: ED-B fibronectin antigen protein (recombinant), bound to CNBr activated sepharose 4B (UniProt P02751); test: ED-B sepharose column, % of total radioactivity bound; Study A; inositol 25 mg/mL; day 0
[11] = biological target: ED-B fibronectin antigen protein (recombinant), bound to CNBr activated sepharose 4B (UniProt P02751); test: ED-B sepharose column, % of total radioactivity bound; Study A; inositol 25 mg/mL; day 5
[12] = biological target: ED-B fibronectin antigen protein (recombinant), bound to CNBr activated sepharose 4B (UniProt P02751); test: ED-B sepharose column, % of total radioactivity bound; Study A; inositol 50 mg/mL; day 1
[13] = biological target: ED-B fibronectin antigen protein (recombinant), bound to CNBr activated sepharose 4B (UniProt P02751); test: ED-B sepharose column, % of total radioactivity bound; Study B3; inositol 10 mg/mL; day 1
[14] = biological target: ED-B fibronectin antigen protein (recombinant), bound to CNBr activated sepharose 4B (UniProt P02751); test: ED-B sepharose column, % of total radioactivity bound; Study B3; inositol 10 mg/mL; day 2
[15] = biological target: ED-B fibronectin antigen protein (recombinant), bound to CNBr activated sepharose 4B (UniProt P02751); test: ED-B sepharose column, % of total radioactivity bound; Study B3; inositol 10 mg/mL; day 3
[16] = biological target: ED-B fibronectin antigen protein (recombinant), bound to CNBr activated sepharose 4B (UniProt P02751); test: ED-B sepharose column, % of total radioactivity bound; Study B3; inositol 10 mg/mL; day 7
[17] = biological target: ED-B fibronectin antigen protein (recombinant), bound to CNBr activated sepharose 4B (UniProt P02751); test: ED-B sepharose column, % of total radioactivity bound; Study A; methionine 10 mg/mL; day 5
[18] = biological target: ED-B fibronectin antigen protein (recombinant), bound to CNBr activated sepharose 4B (UniProt P02751); test: ED-B sepharose column, % of total radioactivity bound; Study A; methionine 25 mg/mL; day 3
[19] = biological target: ED-B fibronectin antigen protein (recombinant), bound to CNBr activated sepharose 4B (UniProt P02751); test: ED-B sepharose column, % of total radioactivity bound; Study B3; thioglycerol 10 mg/mL; day 2
[20] = biological target: ED-B fibronectin antigen protein (recombinant), bound to CNBr activated sepharose 4B (UniProt P02751); test: ED-B sepharose column, % of total radioactivity bound; Study B3; thioglycerol 10 mg/mL; day 7
[21] = biological target: ED-B fibronectin antigen protein (recombinant), bound to CNBr activated sepharose 4B (UniProt P02751); test: ED-B sepharose column, % of total radioactivity bound; Study B3; ascorbic acid 25 mg/mL; day 3
[22] = biological target: ED-B fibronectin antigen protein (recombinant), bound to CNBr activated sepharose 4B (UniProt P02751); test: ED-B sepharose column, % of total radioactivity bound; Study A; sodium thiosulfate 50 mg/mL; day 3
[23] = biological target: ED-B fibronectin antigen protein (recombinant), bound to CNBr activated sepharose 4B (UniProt P02751); test: ED-B sepharose column, % of total radioactivity bound; Study A; sodium thiosulfate 50 mg/mL; day 7
[24] = biological target: ED-B fibronectin antigen protein (recombinant), bound to CNBr activated sepharose 4B (UniProt P02751); test: ED-B sepharose column, % of total radioactivity bound; Study B3; no-excipient control (PBS); day 0
[25] = biological target: ED-B fibronectin antigen protein (recombinant), bound to CNBr activated sepharose 4B (UniProt P02751); test: ED-B sepharose column, % of total radioactivity bound; Study B3; no-excipient control (PBS); day 7
[26] = biological target: ED-B fibronectin antigen protein (recombinant), bound to CNBr activated sepharose 4B (UniProt P02751); test: ED-B sepharose column, % of total radioactivity bound; Study A; no-excipient control (saline); day 1
[27] = biological target: ED-B fibronectin antigen protein (recombinant), bound to CNBr activated sepharose 4B (UniProt P02751); test: ED-B sepharose column, % of total radioactivity bound; Study B3; human serum albumin 10 mg/mL; day 2
[28] = biological target: ED-B fibronectin antigen protein (recombinant), bound to CNBr activated sepharose 4B (UniProt P02751); test: ED-B sepharose column, % of total radioactivity bound; Study B3; human serum albumin 10 mg/mL; day 7

Sequence of UniProt P02751 (P02751 1266-1356 limits assumed): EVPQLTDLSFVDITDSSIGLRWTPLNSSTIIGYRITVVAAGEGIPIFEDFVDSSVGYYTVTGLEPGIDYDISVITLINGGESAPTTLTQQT
Sequence of 131I L19-SIP (radioiodinated L19 SIP homodimer) (chain): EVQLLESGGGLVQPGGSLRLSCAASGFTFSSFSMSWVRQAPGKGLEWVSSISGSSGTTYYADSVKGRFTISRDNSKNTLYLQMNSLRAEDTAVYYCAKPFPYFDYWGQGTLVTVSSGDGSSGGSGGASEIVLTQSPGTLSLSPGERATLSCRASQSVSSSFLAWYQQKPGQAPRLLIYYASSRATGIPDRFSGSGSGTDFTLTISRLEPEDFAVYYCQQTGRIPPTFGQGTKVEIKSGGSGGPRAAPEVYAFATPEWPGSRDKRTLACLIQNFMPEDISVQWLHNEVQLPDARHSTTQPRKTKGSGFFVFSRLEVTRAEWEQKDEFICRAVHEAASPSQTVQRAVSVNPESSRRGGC
Sequence of 131I L19-SIP (radioiodinated L19 SIP homodimer) (chain): as above

Work on “131I L19-SIP (radioiodinated L19 SIP homodimer)” yielded an Immunoreactivity (%) [1] of 94.6%, an Immunoreactivity (%) [2] of 66.3% and an Immunoreactivity (%) [3] of 53.7%. It also gave an Immunoreactivity (%) [4] of 53.6%, an Immunoreactivity (%) [5] of 89.7% and an Immunoreactivity (%) [6] of 85.9%. For the same substance, the Immunoreactivity (%) [7] was 94.8%, the Immunoreactivity (%) [8] was 87.1% and the Immunoreactivity (%) [9] was 60.7%. The Immunoreactivity (%) [10] was 94.1%, the Immunoreactivity (%) [11] was 59.9% and the Immunoreactivity (%) [12] was 89.3%. The Immunoreactivity (IR) (%) [13] was 77.1%, the Immunoreactivity (IR) (%) [14] was 68.8% and the Immunoreactivity (IR) (%) [15] was 74.8%. It also gave an Immunoreactivity (IR) (%) [16] of 61.9%, an Immunoreactivity (%) [17] of 64.2% and an Immunoreactivity (%) [18] of 79.6%. It also gave an Immunoreactivity (IR) (%) [19] of 58.4%, an Immunoreactivity (IR) (%) [20] of 47.1% and an Immunoreactivity (IR) (%) [21] of 78.7%. For the same substance, the Immunoreactivity (%) [22] was 91.7%, the Immunoreactivity (%) [23] was 88.2% and the Immunoreactivity (IR) (%) [24] was 74.6%. It also gave an Immunoreactivity (IR) (%) [25] of 28.2%, an Immunoreactivity (%) [26] of 81.6% and an Immunoreactivity (IR) (%) [27] of 59.9%. It also gave an Immunoreactivity (IR) (%) [28] of 39.8%.
